test system: Escherichia coli TOP10; test: shrunken log2 fold change of peptide-encoding DNA abundance (4.5 h post-induction vs induction); higher = less antimicrobial activity (less host growth inhibition); conditions: time post-induction: 4.5 h; library: site-saturation at positions 5, 18, 19, 20
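Note: peptides expressed intracellularly from a pBAD plasmid library in pooled LB shake-flask culture, induced with 0.3% L-arabinose, DNA abundance read by NGS, three biological replicates, DESeq2 with apeglm shrinkage.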

Row | Sequence | shrunken log2 fold change
1 | RRIRTRPPRLPRPRPRPSHFPRP | -0.315
2 | RRIRTRPPRLPRPRPRPSHPPRP | -0.416
3 | RRIRTRPPRLPRPRPRPSKAPRP | -0.0453
4 | RRIRTRPPRLPRPRPRPSLDPRP | -0.286
5 | RRIRTRPPRLPRPRPRPSLHPRP | -0.604
6 | RRIRTRPPRLPRPRPRPSMEPRP | -0.136
7 | RRIRTRPPRLPRPRPRPSMNPRP | -0.28
8 | RRIRTRPPRLPRPRPRPSMSPRP | -0.655
9 | RRIRTRPPRLPRPRPRPSNNPRP | -0.639
10 | RRIRTRPPRLPRPRPRPSQGPRP | 0.144
11 | RRIRTRPPRLPRPRPRPSQPPRP | -0.16
12 | RRIRTRPPRLPRPRPRPSQQPRP | 0.117
13 | RRIRTRPPRLPRPRPRPSRLPRP | 0.0405
14 | RRIRTRPPRLPRPRPRPSSAPRP | -0.172
15 | RRIRTRPPRLPRPRPRPSTHPRP | -0.575
16 | RRIRTRPPRLPRPRPRPSTSPRP | -0.239
17 | RRIRTRPPRLPRPRPRPSVWPRP | 0.172
18 | RRIRTRPPRLPRPRPRPSWGPRP | -0.179
19 | RRIRTRPPRLPRPRPRPSWIPRP | -0.525
20 | RRIRTRPPRLPRPRPRPSWSPRP | -0.196
21 | RRIRTRPPRLPRPRPRPSYLPRP | -0.416
22 | RRIRTRPPRLPRPRPRPSYVPRP | -0.305
23 | RRIRTRPPRLPRPRPRPTADPRP | 0.351
24 | RRIRTRPPRLPRPRPRPTCSPRP | 0.00373
25 | RRIRTRPPRLPRPRPRPTCTPRP | -0.094

Row | Sequence | shrunken log2 fold change
26 | RRIRTRPPRLPRPRPRPTCYPRP | -0.0585
27 | RRIRTRPPRLPRPRPRPTDRPRP | -0.212
28 | RRIRTRPPRLPRPRPRPTFDPRP | -0.0153
29 | RRIRTRPPRLPRPRPRPTFFPRP | -0.11
30 | RRIRTRPPRLPRPRPRPTGVPRP | 0.077
31 | RRIRTRPPRLPRPRPRPTHLPRP | -0.0332
32 | RRIRTRPPRLPRPRPRPTIIPRP | -0.786
33 | RRIRTRPPRLPRPRPRPTLIPRP | -0.108
34 | RRIRTRPPRLPRPRPRPTMLPRP | 3.82
35 | RRIRTRPPRLPRPRPRPTNQPRP | -0.067
36 | RRIRTRPPRLPRPRPRPTSHPRP | -0.478
37 | RRIRTRPPRLPRPRPRPTTPPRP | 0.245
38 | RRIRTRPPRLPRPRPRPTVRPRP | 2.09
39 | RRIRTRPPRLPRPRPRPTWQPRP | 0.149
40 | RRIRTRPPRLPRPRPRPTYHPRP | -0.291
41 | RRIRTRPPRLPRPRPRPVAFPRP | -0.225
42 | RRIRTRPPRLPRPRPRPVCQPRP | 2.97
43 | RRIRTRPPRLPRPRPRPVDHPRP | -0.216
44 | RRIRTRPPRLPRPRPRPVDKPRP | -0.362
45 | RRIRTRPPRLPRPRPRPVDNPRP | -0.0554
46 | RRIRTRPPRLPRPRPRPVDRPRP | 0.141
47 | RRIRTRPPRLPRPRPRPVHLPRP | -0.123
48 | RRIRTRPPRLPRPRPRPVIIPRP | -0.213
49 | RRIRTRPPRLPRPRPRPVKDPRP | -0.0913
50 | RRIRTRPPRLPRPRPRPVKEPRP | -0.0988

Row | Sequence | shrunken log2 fold change
51 | RRIRTRPPRLPRPRPRPVLMPRP | 0.187
52 | RRIRTRPPRLPRPRPRPVLNPRP | -0.269
53 | RRIRTRPPRLPRPRPRPVLSPRP | -0.328
54 | RRIRTRPPRLPRPRPRPVPAPRP | 0.35
55 | RRIRTRPPRLPRPRPRPVPHPRP | -0.0291
56 | RRIRTRPPRLPRPRPRPVSRPRP | 0.464
57 | RRIRTRPPRLPRPRPRPVVCPRP | 0.0187
58 | RRIRTRPPRLPRPRPRPVVTPRP | 0.0483
59 | RRIRTRPPRLPRPRPRPVWFPRP | 0.0412
60 | RRIRTRPPRLPRPRPRPWAGPRP | -0.0234
61 | RRIRTRPPRLPRPRPRPWARPRP | -0.00874
62 | RRIRTRPPRLPRPRPRPWCHPRP | -0.732
63 | RRIRTRPPRLPRPRPRPWDAPRP | 0.125
64 | RRIRTRPPRLPRPRPRPWDCPRP | -0.000687
65 | RRIRTRPPRLPRPRPRPWHGPRP | -0.111
66 | RRIRTRPPRLPRPRPRPWIAPRP | -0.0119
67 | RRIRTRPPRLPRPRPRPWIWPRP | -0.0307
68 | RRIRTRPPRLPRPRPRPWKDPRP | 0.0143
69 | RRIRTRPPRLPRPRPRPWKKPRP | 0.0414
70 | RRIRTRPPRLPRPRPRPWLMPRP | -0.11
71 | RRIRTRPPRLPRPRPRPWNGPRP | -0.199
72 | RRIRTRPPRLPRPRPRPWNRPRP | -0.0406
73 | RRIRTRPPRLPRPRPRPWPSPRP | -0.00931
74 | RRIRTRPPRLPRPRPRPWRPPRP | 0.00182
75 | RRIRTRPPRLPRPRPRPWSAPRP | -0.152

Row | Sequence | shrunken log2 fold change
76 | RRIRTRPPRLPRPRPRPWVTPRP | -0.117
77 | RRIRTRPPRLPRPRPRPWWAPRP | -0.134
78 | RRIRTRPPRLPRPRPRPWWSPRP | -0.143
79 | RRIRTRPPRLPRPRPRPWYTPRP | -0.555
80 | RRIRTRPPRLPRPRPRPYAIPRP | -0.000694
81 | RRIRTRPPRLPRPRPRPYAPPRP | -1.07
82 | RRIRTRPPRLPRPRPRPYARPRP | -0.000715
83 | RRIRTRPPRLPRPRPRPYCMPRP | -1.28
84 | RRIRTRPPRLPRPRPRPYCQPRP | -0.804
85 | RRIRTRPPRLPRPRPRPYCRPRP | -0.149
86 | RRIRTRPPRLPRPRPRPYDPPRP | -0.0474
87 | RRIRTRPPRLPRPRPRPYEDPRP | -0.0155
88 | RRIRTRPPRLPRPRPRPYEQPRP | -0.0291
89 | RRIRTRPPRLPRPRPRPYFCPRP | -0.0855
90 | RRIRTRPPRLPRPRPRPYFDPRP | -0.738
91 | RRIRTRPPRLPRPRPRPYHWPRP | -0.675
92 | RRIRTRPPRLPRPRPRPYHYPRP | -0.185
93 | RRIRTRPPRLPRPRPRPYKDPRP | -0.308
94 | RRIRTRPPRLPRPRPRPYMFPRP | -0.776
95 | RRIRTRPPRLPRPRPRPYMQPRP | -0.298
96 | RRIRTRPPRLPRPRPRPYNLPRP | -0.336
97 | RRIRTRPPRLPRPRPRPYNMPRP | -0.568
98 | RRIRTRPPRLPRPRPRPYNWPRP | -0.143
99 | RRIRTRPPRLPRPRPRPYRPPRP | -0.2
100 | RRIRTRPPRLPRPRPRPYRSPRP | 0.0429

Row | Sequence | shrunken log2 fold change
101 | RRIRTRPPRLPRPRPRPYSHPRP | -0.04
102 | RRIRTRPPRLPRPRPRPYSSPRP | 0.00157
103 | RRIRTRPPRLPRPRPRPYTGPRP | -0.0567
104 | RRIRTRPPRLPRPRPRPYVDPRP | 0.0214
105 | RRIRTRPPRLPRPRPRPYWEPRP | -0.0372
106 | RRIRTRPPRLPRPRPRPYYHPRP | -0.581
107 | RRIRTRPPRLPRPRPRPYYLPRP | -1.28
108 | RRIRVRPPRLPRPRPRPACGPRP | 0.122
109 | RRIRVRPPRLPRPRPRPADEPRP | -0.0284
110 | RRIRVRPPRLPRPRPRPADMPRP | -0.173
111 | RRIRVRPPRLPRPRPRPAEPPRP | 0.218
112 | RRIRVRPPRLPRPRPRPAEQPRP | 0.247
113 | RRIRVRPPRLPRPRPRPAFRPRP | 0.186
114 | RRIRVRPPRLPRPRPRPAGHPRP | -0.1
115 | RRIRVRPPRLPRPRPRPAGVPRP | 0.283
116 | RRIRVRPPRLPRPRPRPAICPRP | -0.0408
117 | RRIRVRPPRLPRPRPRPAKCPRP | 0.0602
118 | RRIRVRPPRLPRPRPRPAKDPRP | 0.00226
119 | RRIRVRPPRLPRPRPRPAKFPRP | 0.42
120 | RRIRVRPPRLPRPRPRPAKKPRP | 0.0179
121 | RRIRVRPPRLPRPRPRPALVPRP | 0.464
122 | RRIRVRPPRLPRPRPRPAMCPRP | -0.178
123 | RRIRVRPPRLPRPRPRPAMIPRP | -0.07
124 | RRIRVRPPRLPRPRPRPAPCPRP | 0.168
125 | RRIRVRPPRLPRPRPRPAQRPRP | 0.184

Row | Sequence | shrunken log2 fold change
126 | RRIRVRPPRLPRPRPRPAQYPRP | -0.0437
127 | RRIRVRPPRLPRPRPRPARMPRP | 0.425
128 | RRIRVRPPRLPRPRPRPARQPRP | 0.365
129 | RRIRVRPPRLPRPRPRPASIPRP | -0.437
130 | RRIRVRPPRLPRPRPRPATYPRP | -0.0417
131 | RRIRVRPPRLPRPRPRPAWIPRP | 0.0483
132 | RRIRVRPPRLPRPRPRPAWRPRP | 0.712
133 | RRIRVRPPRLPRPRPRPCARPRP | -0.0405
134 | RRIRVRPPRLPRPRPRPCCEPRP | -0.0815
135 | RRIRVRPPRLPRPRPRPCCFPRP | -0.00712
136 | RRIRVRPPRLPRPRPRPCCGPRP | -0.248
137 | RRIRVRPPRLPRPRPRPCCSPRP | -0.192
138 | RRIRVRPPRLPRPRPRPCDNPRP | -0.418
139 | RRIRVRPPRLPRPRPRPCDVPRP | 0.0119
140 | RRIRVRPPRLPRPRPRPCEEPRP | 0.24
141 | RRIRVRPPRLPRPRPRPCELPRP | -0.286
142 | RRIRVRPPRLPRPRPRPCEMPRP | 1.45
143 | RRIRVRPPRLPRPRPRPCFCPRP | -0.252
144 | RRIRVRPPRLPRPRPRPCFKPRP | -0.243
145 | RRIRVRPPRLPRPRPRPCGFPRP | 0.624
146 | RRIRVRPPRLPRPRPRPCKIPRP | -0.376
147 | RRIRVRPPRLPRPRPRPCLCPRP | -0.491
148 | RRIRVRPPRLPRPRPRPCLPPRP | -0.219
149 | RRIRVRPPRLPRPRPRPCLQPRP | -0.421
150 | RRIRVRPPRLPRPRPRPCNEPRP | -0.0213

From the supplement of paper PMC9112550, “Optimization of the antimicrobial peptide Bac7 by deep mutational scanning” (BMC Biology, 2022)
